For one substance, ^35S-Vif binds with GST-Vif (%) results are on record in US20040086512A1.

For the assay, the target named is GST-Vif fusion protein (HIV-1 (HIV-1NL4-3)) (UniProt P12504). Nature of the assay: Vif-Vif binding assay (GST pull-down) without peptide, set as 100%.
GST-Vif fusion protein (HIV-1 (HIV-1NL4-3)), sequence (P12504 whole entry, the tested form may be a part): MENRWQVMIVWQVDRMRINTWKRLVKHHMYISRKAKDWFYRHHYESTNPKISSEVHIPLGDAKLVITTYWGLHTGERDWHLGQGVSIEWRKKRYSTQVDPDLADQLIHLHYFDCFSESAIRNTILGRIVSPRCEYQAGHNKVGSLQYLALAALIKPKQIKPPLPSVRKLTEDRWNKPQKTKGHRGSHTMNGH

in vitro translated ^35S-labeled HIV-1NL4-3 Vif protein, P12504 1-192 (other; ^35S-labeled (in vitro translation in the presence of ^35S-methionine); other documents disagree on this pair), sequence (P12504 whole entry): as the sequence (P12504 whole entry, the tested form may be a part) above

The substance “in vitro translated ^35S-labeled HIV-1NL4-3 Vif protein, P12504 1-192 (other; ^35S-labeled (in vitro translation in the presence of ^35S-methionine); other documents disagree on this pair)” gave a ^35S-Vif binds with GST-Vif (%) of 100%.
